test: yeast display, Sf9 membrane polyspecificity reagent, FACS + sequencing; frameworks hold sequencing errors
Procedure, shortened: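 Synthetic nanobody libraries on Saccharomyces cerevisiae BJ5465 were galactose-induced for 36–48 hours, stained 1 hour at 4 °C with 10% biotinylated, detergent-solubilized Sf9 membrane reagent and enriched on streptavidin microbeads. FACS then separated cells into low and high (top ~1%) gates by anti-HA (expression) and streptavidin (reagent binding) fluorescence. Genes were colony-PCR amplified, MiSeq 2 × 250 sequenced and CDR-length filtered. A clone's polyreactivity label is that of its gate of origin.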

| Sequence | polyreactivity (PSR sort gate) |
| --- | --- |
| QVQLVESGGGLVQAGGSLRLSCAASGRTFSGYAMGWYRQAPGKERELVAGITWNGGRTYYADSVKGRFTISRDNAKNTVSLQMNSLKPEDTAVYYCNKLGAVYPKYGYWGQGTQVTVSS | high polyreactivity |
| QVQLVESGGGLVQAGGSLRLSCAASGRTFSGYAMGWYRQAPGKERELVASITYSGGSTYYADSVKGRFTISRDNAKNTVYLQMNSLKPEDTAVYYCNARSSGKGRSNAYYKGHGYWGQGTQVTVSS | high polyreactivity |
| QVQLVESGGGLVQAGGSLRLSCAASGRTFSGYAMVWYRQAPGKERELVAAISSGGGSTYYADSVKGRFTISRDNAKNTVYLQMNSLKPEDTAVYYCAADGYPGDYDYWGQGTQVTVSS | low polyreactivity |
| QVQLVESGGGLVQAGGSLRLSCAASGRTFSHYAMGSYRQAPGKEREFVADITRSGGSTYYADSVKGRFTISRDNAKNTVYLQMNSLKPEDTAVYYCNAESYFEIYDYWGQGTQVTVSS | high polyreactivity |
| QVQLVESGGGLVQAGGSLRLSCAASGRTFSHYAMGWYRQAPGKERELVAAINTRTGTTYYADSVKGRFTISRDNAKNTVYLQMNSLKPEDTAVYYCNAVPYYSYQGWILVGDYDYWGQGTQVTVSS | low polyreactivity |
| QVQLVESGGGLVQAGGSLRLSCAASGRTFSKYAMAWYRQAPGKERELVAAISSSGGSTYYADSVKGRFTISRDNAKNTVYLQMNSLKPEDTAVYYCATRVYPRYWFTTRYRYDYWGQGTQVTVSS | low polyreactivity |
| QVQLVESGGGLVQAGGSLRLSCAASGRTFSKYAMGWYRQAPGKERELVAAISSGGSTNYADSVKGRFTISRDNAKNTVYLQMISLKPEDTAVYYFARTTNWRHSYAYYYLHGHDYWGQGTQVTVSS | high polyreactivity |
| QVQLVESGGGLVQAGGSLRLSCAASGRTFSKYAMGWYRQAPGKERELVAAITRSGSSTYYADSVKGRFTISRDNAKNTVYLQMNCLKPEDTAVYYCAADRYLRSSGSAPDYGYWGQGTQVTVSS | low polyreactivity |
| QVQLVESGGGLVQAGGSLRLSCAASGRTFSKYAMGWYRQAPGKERELVAAITSGGGTYYADSVKGRFTISRDNAKNTVYLQMNSLKPEDTAVYYCAVSVTTVSTYDYWGQGTQVTVSS | low polyreactivity |
| QVQLVESGGGLVQAGGSLRLSCAASGRTFSLNAMGWYRQAPGKERELVAAINRGGTTYYADSVKGRFTISRDNAKNTVYLQMNSLKPEDTAVYDCAARVWGRWAGSYAWWHGYNSWGQGTQVSVSS | high polyreactivity |
| QVQLVESGGGLVQAGGSLRLSCAASGRTFSLYAMGRYRQAPGKERELVAGISSSGGSTYYADSVKGRFTISRDNAKNTVYLQMNSLKQEDTAFYYCAAYRNTVIRNSDYWGQGTQVTVSS | high polyreactivity |
| QVQLVESGGGLVQAGGSLRLSCAASGRTFSLYAMGWSRPAPGKERELVAAITRRGGSTYYADSVKGRFTMSRDNAKNTVYLQMNSLKPEDTAVYYCAADSGYPWELDYWGQGTEVTVSS | low polyreactivity |
| QVQLVESGGGLVQAGGSLRLSCAASGRTFSPNTMGWYRQAPGKEREFVAAITASGDSTYYADSVKGRFTISRDNAKNTVYLQMNSLKPEDTAVYYCDTDSNWYWGFNYWGQGTKVTVSS | low polyreactivity |
| QVQLVESGGGLVQAGGSLRLSCAASGRTFSPYMGWYRQAPGKEGELVAAISKSGGRTYYADSVKGRFTISRDNAKNTVYLQMNSLKPEDTAVYYCATTGNNYYYALYGYWGQGTQVTVSS | low polyreactivity |
| QVQLVESGGGLVQAGGSLRLSCAASGRTFSQYDMGWYRQAPGKERELVAAISWSGGRTYYADSVKGRFTISRDNAKNTVYLQMNSLKPEDTAVYYCAAAYSWIRSPYNDPNRGYDYWGQGTQVTVSS | low polyreactivity |
| QVQLVESGGGLVQAGGSLRLSCAASGRTFSRKAMRWYRQAPGKERELVASISRSGGSTYYADSVKGRFTISRDIAKNTVYLQMNSLKPEDTAVYYCAASYWHRRYDYWGQGTQVTVSS | high polyreactivity |
| QVQLVESGGGLVQAGGSLRLSCAASGRTFSRNAMGWYRQAPGKERELVAAITSRGGTTYYADSVKGRFTISRDNAKNTVYLQMNSLKPEDTAVYYCNAAPRARSKVSYDYWGQGTQVTVSS | high polyreactivity |
| QVQLVESGGGLVQAGGSLRLSCAASGRTFSRNAMGWYRQAPGKERELVAGISWRGTSTYYADSVKGRFTISRDNAKNTVYLQMNSLKPEYTAVYYCNRVYEYWSEYDYWGQGTQVTVSS | high polyreactivity |
| QVQLVESGGGLVQAGGSLRLSCAASGRTFSRNAMGWYRQAPGKERELVATITSDGSTNYADSVKGRFTISRDNAKNTVYLQMNSLKPEDTSVYYCAADEASSRGYYDYDYWGQGTQVTVSS | low polyreactivity |
| QVQLVESGGGLVQAGGSLRLSCAASGRTFSRYAMGWYRQAPGKERELVAAISYSGGRTYYADSVKGRFTISRDNAKNTVYLQMNSLKPEDTAVYYCAASWPGHTVDYDYWGQGTQVTVSS | high polyreactivity |
| QVQLVESGGGLVQAGGSLRLSCAASGRTFSRYAMGWYRQAPWKERELVAAITSRGGNTYYADSVKGRFTISRDNAKNTVYLQMNSLIPEDTAVYYCNKVVRRGGGKNPDYDYWGQGTQVTVSS | high polyreactivity |
| QVQLVESGGGLVQAGGSLRLSCAASGRTFSSNAMGWYRPAPGKEREMVAAITRRSGSTYYADSVKGRFTISRDNAKNTVYLQMNSLKPEDTAVYYCNADIDSYREMDYWGQGTQVTVSS | low polyreactivity |
| QVQLVESGGGLVQAGGSLRLSCAASGRTFSSNTMGWYRQAPGKERELVAAISSTDSTYYADSVKGRFTISRDNAKNTVYLQMNSLKPEDTAVYYCNKVVGFRSYFGGYGYWGQGTQVTVSS | high polyreactivity |
| QVQLVESGGGLVQAGGSLRLSCAASGRTFSSYAMGWYRQAPGKERELVAAISSGGSTYYADSVKGRFTISRDNAKNTVYLQMNSLKPEDTAVYYCNRRFYYKIGRGIRYFWGQVTQVTVSS | high polyreactivity |
| QVQLVESGGGLVQAGGSLRLSCAASGRTFSSYVMGWYRQAPGKERELVASISRRGGSTYYADSVKGRFTISRDNAKNTVYLQMNSLKPEDTAVYYCNADLRGYGRGTDQYTFDYWGQGTQVTVSS | high polyreactivity |
| QVQLVESGGGLVQAGGSLRLSCAASGRTFSTYAMGWYRQAPGKERELVAAITTSGGNTYYADSVKGRFTISRDNAKNTVYLQMNSLKPEDTAVYYCNADYFPTYDYWGQGTQVTVSS | low polyreactivity |
| QVQLVESGGGLVQAGGSLRLSCAASGRTFSVNAMGWYRQAPGKEREFVAAISKSGGSTYYADSVKGRFTISRDNAKNTVYLQMNSLKPEDTAVYYCAADSNSVYPFDYWGQGTQVTVSS | high polyreactivity |
| QVQLVESGGGLVQAGGSLRLSCAASGRTFSVNAMGWYRQAPGKERELVATISYRGGSTYYADSVKGRFTISRDNAKNTVYLQMNSLKPEDTAVYYCAAGWRYWGRIYRDYDSWGQGTQVTVSS | high polyreactivity |
| QVQLVESGGGLVQAGGSLRLSCAASGRTFSWYAMGWYRQAPGKERELVAAITSDGSPYYADSVKGRFTISRDNAKNTVYLQMNSLKPEDTAVYYCAADTVYRSYYWGQGTQVTVSS | low polyreactivity |
| QVQLVESGGGLVQAGGSLRLSCAASGRTFSWYAMGWYRQAPGKERELVAAITSVGSTNYADSVKGRFTISRDNAKNTVYLQMNSLKPEDTAVYYCAATIFVYSYRYYYWGQGTQVTVSS | low polyreactivity |

— the nanobody polyreactivity screen of Harvey et al. (2022)
